{
  "source": "paper PMC7586746",
  "about": "“A putative nuclear copper chaperone promotes plant immunity in Arabidopsis” (Journal of Experimental Botany, 2020)",
  "binders": {"B1": {"name": "His-TGA2 (natural protein, UniProt P43273 1-330, looked up)", "chain": "MADTSPRTDVSTDDDTDHPDLGSEGALVNTAASDSSDRSKGKMDQKTLRRLAQNREAARKSRLRKKAYVQQLENSRLKLTQLEQELQRARQQGVFISGTGDQAHSTGGNGALAFDAEHSRWLEEKNKQMNELRSALNAHAGDSELRIIVDGVMAHYEELFRIKSNAAKNDVFHLLSGMWKTPAERCFLWLGGFRSSELLKLLANQLEPMTERQLMGINNLQQTSQQAEDALSQGMESLQQSLADTLSSGTLGSSSSGNVASYMGQMAMAMGKLGTLEGFIRQADNLRLQTLQQMIRVLTTRQSARALLAIHDYFSRLRALSSLWLARPRE", "notes": "transcription factor TGA2"}, "B2": {"name": "LS7 probe (PR1 promoter) (dsDNA)", "DNA 1": "TATTTTACTTACGTCATAGATGTGGCGGCA", "DNA 2": "TGCCGCCACATCTATGACGTAAGTAAAATA"}},
  "key": {"GST–NPR1": {"target": "T1, GST–NPR1 (UniProt P93002 1-593)", "T1 construct": "NPR1 (non-expressor of pathogenesis-related gene 1), cloned into pGEX-4T-1; source: E. coli BL21, purified", "T1 sequence (looked up)": "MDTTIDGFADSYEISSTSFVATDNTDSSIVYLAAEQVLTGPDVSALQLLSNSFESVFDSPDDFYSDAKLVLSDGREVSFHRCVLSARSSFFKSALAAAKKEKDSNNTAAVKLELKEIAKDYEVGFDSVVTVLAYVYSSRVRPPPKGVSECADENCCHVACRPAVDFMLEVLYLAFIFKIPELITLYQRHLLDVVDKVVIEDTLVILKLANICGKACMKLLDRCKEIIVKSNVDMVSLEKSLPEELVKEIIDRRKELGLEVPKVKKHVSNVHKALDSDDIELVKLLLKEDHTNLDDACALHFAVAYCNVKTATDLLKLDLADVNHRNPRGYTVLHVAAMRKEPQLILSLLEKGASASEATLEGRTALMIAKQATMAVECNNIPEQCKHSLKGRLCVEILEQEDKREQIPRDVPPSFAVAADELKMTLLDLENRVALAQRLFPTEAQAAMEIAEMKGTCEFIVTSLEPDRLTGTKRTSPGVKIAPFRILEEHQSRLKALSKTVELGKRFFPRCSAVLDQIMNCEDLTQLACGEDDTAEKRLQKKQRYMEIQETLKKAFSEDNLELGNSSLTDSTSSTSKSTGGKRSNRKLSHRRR", "assay": "pull-down; GST pull-down in vitro of His-CCP and His-TGA2 added together, in the presence of Cu^2+ (Supplementary Fig. S13)", "settings": "both partners purified"}, "NPR1": {"target": "NPR1 (UniProt P93002 1-593)", "assay": "EMSA; NPR1 alone; LightShift EMSA kit: 500 ng GST-tagged protein, 4 fmol biotin-LS7 probe, 20 ul with 1 ul dI-dC, 1 ul 50% glycerol, kit 10x binding buffer, 20 min, 25 C; 6% native gel; salt and pH not stated", "settings": "protein: recombinant; tags: GST (N-terminal); blunt"}, "TGA2;NPR1": {"target": "TGA2;NPR1 (Arabidopsis thaliana?;Arabidopsis …, UniProt P43273;P93002 1-330;1-593, |)", "assay": "EMSA; with NPR1; substantially more probe bound than TGA2 alone; LightShift EMSA kit: 500 ng GST-tagged protein, 4 fmol biotin-LS7 probe, 20 ul with 1 ul dI-dC, 1 ul 50% glycerol, kit 10x binding buffer, 20 min, 25 C; 6% native gel; salt and pH not stated", "settings": "protein: recombinant;recombinant; tags: GST (N-terminal);GST (N-terminal); blunt"}},
  "data": [
    {"binder": "B1", "values": [
      {"measurement": "binding result", "setting": "GST–NPR1", "value": "binds"}
    ]},
    {"binder": "B2", "values": [
      {"measurement": "binding result", "setting": "NPR1", "value": "no binding"},
      {"measurement": "binding result", "setting": "TGA2;NPR1", "value": "binds"}
    ]}
  ]
}
